The source of these data is patent US8629107B2, “Genes and proteins associated with angiogenesis and uses thereof” (National Jewish Health, priority 2005, dated 2014).

One assay relates to MCA102 fibrosarcomas. The assay can be described thus: MCA102 fibrosarcomas produced in mice. Type of assay: in vivo. Conditions: unpublished observation.
Assay [1] has as its system MB114 cells. The assay is described as follows: cell invasion through Matrigel matrices, modified Boyden-chamber assay. Type of assay: cell-based, murine. Conditions: MB114 cells stably expressing the transgene vs GFP; 48 h. The method, then:
(§1) The effect putative angiogenic agents had on MB114 cell activities were determined as follows: (i) cell proliferation using a [^3H]thymidine incorporation assay as described (Albig et al, 2006; Albig and Schiemann, 2004; Albig and Schiemann, 2005); (ii) cell invasion through Matrigel matrices using a modified Boyden-chamber assay as described (Albig et al, 2006; Albig and Schiemann, 2004; Albig and Schiemann, 2005); (iii) p38 MAPK phosphorylation using immunoblot analyses as described (Albig et al, 2006; Albig and Schiemann, 2004; Albig and Schiemann, 2005); (iv) angiogenic sprouting in rat tail collagen matrices as described (Albig et al, 2006; Albig and Schiemann, 2004); and (v) Hes1- and SBE-driven luciferase reporter gene assays as described (Albig et al, 2006; Albig and Schiemann, 2004; Albig and Schiemann, 2005).
(§2) FIG. 1A show results from an experiment in which serum-starved MB114 cells, stably expressing either GFP or various putative angiogenic agents, were stimulated in the absence or presence of either bFGF (50 ng/ml) or EGF (10 ng/ml) for 24 h at 37° C. Differences in MB114 cell DNA synthesis was determined by measuring [^3H]thymidine incorporation into cellular DNA. […] In this experiment, invasion of MB114 cells expressing either GFP or various putative angiogenic agents through synthetic basement membranes was determined over 48 h using a modified Boyden-chamber assay.

The next assay has as its target T1, Notch1 (Mus musculus, UniProt Q01705).
T1 construct: expressed in transfected cells; host or cells: human kidney 293T cells, transient transfection (LT-1 liposomes)
The assay can be described thus: Notch1 processing assay in human kidney 293T cells. The class given is cell-based. Conditions: co-expression with Notch1 and Jagged-1 in 293T cells. The method, then:
To monitor the effects of MAGP-2 on the processing and S3 cleavage of Notch1, human kidney 293T cells were transiently transfected in 6-well plates with LT-1 liposomes containing 0.5 μg/well of Notch1 (pCS2+mN1FL6MT), 0.5 μg/well Jagged-1 (pCS2+Jag1-6MT), or 1.5 μg/well of MAGP-2 (pcDNA3.1-MAGP-2/Myc-His) in all combinations. Forty-eight h post-transfection, the cells were washed with ice-cold PBS, lysed immediately in Buffer H/1% Triton X-100 [500 μl/well; (Schiemann et al, 2002)], and incubated on ice for 30 min. Afterward, insoluble material was removed by microcentrifugation and 100 μl of the resulting clarified extract was fractionated through 6% SDS-PAGE gels. The fractionated proteins were transferred electrophoretically to nitrocellulose and probed with anti-Myc 9E10 monoclonal antibodies (Covance, Princeton, N.J.) to visual Notch1 cleavage species.
Activation of Notch1 signaling involves three proteolytic processing events, termed S1, S2, and S3, that produce three distinct Notch1 fragments, termed TMIC, NEXT, and NICD, respectively (Mumm et al, 2000). […] The inventors tested this possibility by transiently transfecting human 293T cells with cDNAs encoding Myc-tagged versions of Notch1, Jagged-1, and MAGP-2 in all combinations, and subsequently monitored changes in NICD production and accumulation by immunoblot analyses using anti-Myc monoclonal antibodies. […]

The subject of assay [2] is MB114 cells. The assay is described as follows: cell proliferation, [3H]thymidine incorporation assay. Conditions: serum-starved MB114 cells stably expressing the transgene vs GFP, 24 h, 37° C. Type of assay: cell-based, murine. The method, then: as §1, §2
The subject of assay [3] is vessel formation and infiltration into Matrigel plugs. The assay is described as follows: Matrigel plug implantation assay. The conditions noted are these: 1 μg/ml with bFGF 50 ng/ml vs bFGF alone; subcutaneous, C57BL/6 mice, day 10. The class given is in vivo, C57BL/6 mice. The method, then:
The effect of MAGP-2 on vessel formation and infiltration into Matrigel plugs implanted into genetically normal mice was determined as described (Albig et al, 2006). Briefly, phenol red-free Matrigel (BD biosciences, Bedford, Mass.) was mixed with PBS (diluent), bFGF (50 or 300 ng/ml; R&D Systems, Minneapolis, Minn.), or recombinant MAGP-2 (1 μg/ml) together with bFGF (50 ng/ml), and the resulting mixtures were injected twice subcutaneously in the ventral groin area (400 μl/injection) of C57BL/6 mice. The mice were sacrificed 10 days post-implantation and the Matrigel plugs were dissected, fixed overnight in 10% formalin, and sectioned in the National Jewish Histology Laboratory. Afterward, Masson's trichrome staining was performed to visualize infiltrating vessels, which were quantified under a light microscope by determining the average number of vessels present in 5 random fields (200× magnification). Only those fields that contained at least one vessel in the area underlying the skin were tallied. Two mice were used per experimental condition and this experiment was performed three times in its entirety. All animal studies were performed according to protocol procedures approved by the Animal Care and Use Committee at National Jewish Medical and Research Center.
The inventors tested this hypothesis by utilizing the Matrigel plug implantation assay, which monitors the ability of various angiogenic agents to alter vessel formation and infiltration into Matrigel plugs implanted subcutaneously into normal mice. […] MAGP-2 purity was monitored by coomassie staining, and by immunoblotting with anti-FLAG M2 monoclonal antibodies (FIG. 2A; right panel). rMAGP-2 (1 μg/ml) stimulated angiogenic sprouting of quiescent MB114 cell monolayers (FIG. 2A; left panel). […] Afterward, the Matrigel plugs were fixed, sectioned, and stained with Masson's trichrome to visualize infiltrating blood vessels (FIG. 2B; right panels; arrows denote blood vessels), which were quantified by manual counting under a light microscope. […]

T1 sequence (Q01705 19-2531): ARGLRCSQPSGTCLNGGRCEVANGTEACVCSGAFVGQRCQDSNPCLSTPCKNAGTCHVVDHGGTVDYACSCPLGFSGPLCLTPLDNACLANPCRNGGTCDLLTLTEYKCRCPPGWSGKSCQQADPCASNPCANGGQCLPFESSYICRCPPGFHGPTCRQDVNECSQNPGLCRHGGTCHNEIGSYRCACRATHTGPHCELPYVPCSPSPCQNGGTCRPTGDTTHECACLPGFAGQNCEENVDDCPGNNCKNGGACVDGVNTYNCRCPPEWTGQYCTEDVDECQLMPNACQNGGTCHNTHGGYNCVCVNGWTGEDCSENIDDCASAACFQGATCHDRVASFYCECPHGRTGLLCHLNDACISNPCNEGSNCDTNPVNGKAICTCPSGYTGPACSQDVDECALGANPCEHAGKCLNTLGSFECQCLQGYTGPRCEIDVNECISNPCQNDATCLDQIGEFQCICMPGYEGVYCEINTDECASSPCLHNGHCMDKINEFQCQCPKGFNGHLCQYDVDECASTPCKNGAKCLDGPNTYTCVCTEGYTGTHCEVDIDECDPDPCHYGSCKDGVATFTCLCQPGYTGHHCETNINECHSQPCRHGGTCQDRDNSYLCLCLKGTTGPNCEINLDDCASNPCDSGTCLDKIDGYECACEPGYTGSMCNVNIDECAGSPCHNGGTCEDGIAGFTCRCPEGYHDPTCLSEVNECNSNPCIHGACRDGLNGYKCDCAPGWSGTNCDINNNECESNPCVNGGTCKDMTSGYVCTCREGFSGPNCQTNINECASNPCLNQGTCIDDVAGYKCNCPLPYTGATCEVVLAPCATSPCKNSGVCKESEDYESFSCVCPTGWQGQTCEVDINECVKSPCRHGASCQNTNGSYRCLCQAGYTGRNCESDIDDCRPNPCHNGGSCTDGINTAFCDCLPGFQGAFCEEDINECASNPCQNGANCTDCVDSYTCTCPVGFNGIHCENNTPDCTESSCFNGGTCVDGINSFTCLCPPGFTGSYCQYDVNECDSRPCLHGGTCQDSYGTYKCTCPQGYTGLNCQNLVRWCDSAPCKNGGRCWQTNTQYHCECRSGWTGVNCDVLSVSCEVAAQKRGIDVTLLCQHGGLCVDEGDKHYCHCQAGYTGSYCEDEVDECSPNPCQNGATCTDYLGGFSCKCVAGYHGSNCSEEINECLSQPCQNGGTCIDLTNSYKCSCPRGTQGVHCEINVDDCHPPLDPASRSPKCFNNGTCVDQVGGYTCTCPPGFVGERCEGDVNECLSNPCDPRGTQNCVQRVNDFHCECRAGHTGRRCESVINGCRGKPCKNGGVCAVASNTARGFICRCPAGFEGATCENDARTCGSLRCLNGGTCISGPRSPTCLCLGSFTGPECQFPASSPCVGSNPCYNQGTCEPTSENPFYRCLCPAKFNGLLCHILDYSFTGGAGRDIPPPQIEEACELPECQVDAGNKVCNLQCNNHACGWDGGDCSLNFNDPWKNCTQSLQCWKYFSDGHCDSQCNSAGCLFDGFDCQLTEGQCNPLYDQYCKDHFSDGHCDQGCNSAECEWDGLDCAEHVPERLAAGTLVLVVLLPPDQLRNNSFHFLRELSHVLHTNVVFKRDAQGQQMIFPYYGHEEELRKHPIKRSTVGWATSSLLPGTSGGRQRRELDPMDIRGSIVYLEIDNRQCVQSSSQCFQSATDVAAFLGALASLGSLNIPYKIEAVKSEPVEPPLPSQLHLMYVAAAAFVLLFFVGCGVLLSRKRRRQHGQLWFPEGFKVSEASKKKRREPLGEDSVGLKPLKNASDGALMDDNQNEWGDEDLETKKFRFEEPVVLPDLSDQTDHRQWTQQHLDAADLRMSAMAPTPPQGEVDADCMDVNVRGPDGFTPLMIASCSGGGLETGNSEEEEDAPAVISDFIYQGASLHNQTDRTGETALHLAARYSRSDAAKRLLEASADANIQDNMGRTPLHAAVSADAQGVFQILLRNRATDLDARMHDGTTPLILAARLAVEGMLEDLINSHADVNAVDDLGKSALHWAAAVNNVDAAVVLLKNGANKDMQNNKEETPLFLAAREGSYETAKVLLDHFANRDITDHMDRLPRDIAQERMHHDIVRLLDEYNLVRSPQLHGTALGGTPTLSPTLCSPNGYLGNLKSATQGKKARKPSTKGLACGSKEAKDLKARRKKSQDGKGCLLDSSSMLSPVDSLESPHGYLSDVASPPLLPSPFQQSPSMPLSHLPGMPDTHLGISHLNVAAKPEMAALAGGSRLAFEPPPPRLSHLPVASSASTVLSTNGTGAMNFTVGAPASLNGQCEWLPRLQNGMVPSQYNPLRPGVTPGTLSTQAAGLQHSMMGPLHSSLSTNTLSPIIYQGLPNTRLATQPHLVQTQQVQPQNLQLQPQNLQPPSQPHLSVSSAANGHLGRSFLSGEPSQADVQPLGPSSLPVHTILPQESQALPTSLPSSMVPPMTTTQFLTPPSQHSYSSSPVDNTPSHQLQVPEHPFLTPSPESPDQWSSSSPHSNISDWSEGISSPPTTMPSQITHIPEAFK

B1: MAGP-2: secreted glycoprotein (25 kDa); stably expressed in MB114 cells by bicistronic retroviral transduction, Myc-His tagged (protein)
chain: QRGDDVPETFTDDPNLVNDPSTDDTALADITPSTDDLAGDKNATAECRDEKFACTRLYSVHRPVRQCVHQSCFTSLRRMYIINNEICSRLVCKEHEAMKDELCRQMAGLPPRRLRRSNYFRLPPCENMNLQRPDGL
modifications: left off: small tags and cut ends
notes: secreted glycoprotein (25 kDa); stably expressed in MB114 cells by bicistronic retroviral transduction, Myc-His tagged
With B1, in the assay with MCA102 fibrosarcomas, the “growth of MCA102 fibrosarcomas produced in mice” value is “significantly increase” and the “vascularization of MCA102 fibrosarcomas produced in mice” value is on record as “significantly increase”. For the same molecule, the “MB114 cell invasion through synthetic basement membranes” value with MB114 cells [1] is “significantly induced”. Besides, in the assay with Notch1, the “ability of Jagged-1 to induce Notch1 cleavage and NICD production” value is “reduced significantly”. Further, the “proliferative response of MB114 cells to EGF ([3H]thymidine incorporation into cellular DNA)” value with MB114 cells [2] (EGF 10 ng/ml) is reported as “significantly enhanced”. Further, in the assay with MB114 cells [2] (bFGF 50 ng/ml), the “proliferative response of MB114 cells to bFGF ([3H]thymidine incorporation into cellular DNA)” value is “significantly enhanced”.

B2: rMAGP-2: recombinant FLAG-tagged MAGP-2 purified from bacterial cell extracts by anti-FLAG chromatography (protein, UniProt Q9QZJ6 29-164, looked up)
Microfibrillar-associated …: QRGDDVPETFTDDPNLVNDPSTDDTALADITPSTDDLAGDKNATAECRDEKFACTRLYSVHRPVRQCVHQSCFTSLRRMYIINNEICSRLVCKEHEAMKDELCRQMAGLPPRRLRRSNYFRLPPCENMNLQRPDGL
modifications: FLAG tag
notes: recombinant FLAG-tagged MAGP-2 purified from bacterial cell extracts by anti-FLAG chromatography
In the case of B2, the “development and infiltration of vessels into Matrigel plugs” value in assay [3] is “significantly increased”.
